Test results reported in paper PMC3575409, “Identification of a Novel Protein-Protein Interaction Motif Mediating Interaction of GPCR-Associated Sorting Proteins with G Protein-Coupled Receptors” (PLoS ONE, 2013).

How the values were obtained:
[1] = molecular target: GST-fused C-tail of the β1 adrenergic receptor (residues 373–477); assay: pull-down; competition: synthetic peptide (1 to 250 µM, or 150 µM) against [35S]-labelled GASPs for GST-fused C-tails; the peptide and the C-tail
[2] = molecular target: the four receptor C-tails (ADRB1, M1, CALCR and TXA2); assay: as above
[3] = molecular target: T1, GST-fused C-tail of the calcitonin receptor (residues 407–490); assay: pull-down; GST-fused receptor C-tails immobilized on glutathione-Sepharose beads, incubated with [35S]-labelled in vitro translated GASPs 1 h at 4°C; 20 mM Tris-HCl pH 7.4, 150 mM NaCl, 1 mM EDTA, 1 mM DTT, 10% glycerol, 1% Triton X-100; Phosphor-imager quantification
T1 sequence (P30988 whole entry, species assumed, looked up): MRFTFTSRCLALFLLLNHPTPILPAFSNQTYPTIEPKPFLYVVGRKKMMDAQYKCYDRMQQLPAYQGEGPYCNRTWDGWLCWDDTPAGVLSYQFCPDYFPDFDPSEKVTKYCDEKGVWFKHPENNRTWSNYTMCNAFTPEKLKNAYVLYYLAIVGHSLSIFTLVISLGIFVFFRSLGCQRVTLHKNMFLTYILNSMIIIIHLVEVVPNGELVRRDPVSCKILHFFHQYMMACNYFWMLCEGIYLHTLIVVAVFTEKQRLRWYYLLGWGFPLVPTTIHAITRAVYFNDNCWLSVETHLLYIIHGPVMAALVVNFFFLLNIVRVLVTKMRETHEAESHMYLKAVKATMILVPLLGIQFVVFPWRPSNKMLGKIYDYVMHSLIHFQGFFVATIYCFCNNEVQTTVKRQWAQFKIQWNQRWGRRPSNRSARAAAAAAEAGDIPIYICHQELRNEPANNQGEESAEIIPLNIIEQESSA

[4] = molecular target: GST-fused C-tail of the histamine 2 receptor (residues 284–349); assay: as above
[5] = molecular target: GST-fused C-tail of the insulin growth factor I receptor (residues 1268–1367); assay: as above
[6] = molecular target: GST-fused C-tail of the muscarinic M1 acetylcholine receptor (residues 414–460); assay: as above
[7] = molecular target: GST-fused C-tail of the type III transforming growth factor β receptor (residues 805–849); assay: as above
[8] = molecular target: GST-fused C-tail of the α isoform of the thromboxane A2 receptor (residues 304–343); assay: as above
[9] = molecular target: GST-fused C-tail of the β1 adrenergic receptor (residues 373–477); assay: as above
[10] = molecular target: GST-fused C-tail of the δ-opioid receptor (residues 314–372); assay: as above
free GST = assay: as above
[11] = molecular target: GST-fused C-tail of the β1 adrenergic receptor (residues 373–477); assay: pull-down; data not shown; GST-ADRB1 C-tail with GASP-1 fragment 924–1395
[12] = molecular target: all three receptor C-tails (ADRB1, M1 and CALCR); assay: pull-down; GST-fused receptor C-tails immobilized on glutathione-Sepharose beads, incubated with [35S]-labelled in vitro translated GASPs 1 h at 4°C; 20 mM Tris-HCl pH 7.4, 150 mM NaCl, 1 mM EDTA, 1 mM DTT, 10% glycerol, 1% Triton X-100; Phosphor-imager quantification

Sequence of GST-fused C-tail of the histamine 2 receptor (residues 284–349) (P25021 284-349): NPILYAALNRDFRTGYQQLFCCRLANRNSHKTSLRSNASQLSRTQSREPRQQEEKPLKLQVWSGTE
Sequence of GST-fused C-tail of the insulin growth factor I receptor (residues 1268–1367) (P08069 1268-1367): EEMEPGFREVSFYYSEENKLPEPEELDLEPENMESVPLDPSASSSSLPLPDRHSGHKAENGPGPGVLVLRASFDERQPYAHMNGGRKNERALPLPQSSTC
Sequence of GST-fused C-tail of the type III transforming growth factor β receptor (residues 805–849) (Q03167 805-849): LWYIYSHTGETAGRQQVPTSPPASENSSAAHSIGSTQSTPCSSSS

B1: GASP peptide (peptide)
peptide: RVKQEPRFEEEVIIGSWFWAEKEA
How did the percent inhibition of GASP-2 binding at 100 µM peptide [1] turn out when B1 was run?
Its percent inhibition of GASP-2 binding at 100 µM peptide is 65%.

And the percent inhibition of GASP-2 binding at 250 µM peptide [1]?
The percent inhibition of GASP-2 binding at 250 µM peptide was 76%.

And the percent of GASP-1, -2 and -7 retained with 150 µM GASP peptide, of the control without peptide [2]?
Its percent of GASP-1, -2 and -7 retained with 150 µM GASP peptide, of the control without peptide is 6 to 35 % of control.

B2: GASP-6 (natural protein)
chain: MGYARKVGWVTAGLVIGAGACYCIYRLTRGRKQNKEKMAEGGSGDVDDAGDCSGARYNDWSDDDDDSNESKSIVWYPPWARIGTEAGTRARARARARATRARRAVQKRASPNSDDTVLSPQELQKVLCLVEMSEKPYILEAALIALGNNAAYAFNRDIIRDLGGLPIVAKILNTRDPIVKEKALIVLNNLSVNAENQRRLKVYMNQVCDDTITSRLNSSVQLAGLRLLTNMTVTNEYQHMLANSISDFFRLFSAGNEETKLQVLKLLLNLAENPAMTRELLRAQVPSSLGSLFNKKENKEVILKLLVIFENINDNFKWEENEPTQNQFGEGSLFFFLKEFQVCADKVLGIESHHDFLVKVKVGKFMAKLAEHMFPKSQE
modifications: [35S]-methionine labelled
For B2, which percent of GASP input retained (% of GASP input) [3] is on record?
The percent of GASP input retained (% of GASP input) was 2.

And the percent of GASP input retained (% of GASP input) [4]?
Its percent of GASP input retained (% of GASP input) is 2.

What about the percent of GASP input retained (% of GASP input) [5] of the same binder?
The percent of GASP input retained (% of GASP input) was < 1.

What about the percent of GASP input retained (% of GASP input) [6] of the same binder?
Its percent of GASP input retained (% of GASP input) is 2.

And the percent of GASP input retained (% of GASP input) [7]?
Its percent of GASP input retained (% of GASP input) is < 1.

What about the percent of GASP input retained (% of GASP input) [8] of the same binder?
The percent of GASP input retained (% of GASP input) was 2.

What about the percent of GASP input retained (% of GASP input) [9] of the same binder?
The percent of GASP input retained (% of GASP input) was 2.

And the percent of GASP input retained (% of GASP input) [10]?
Its percent of GASP input retained (% of GASP input) is 2.

What about the percent of GASP input retained (% of GASP input) (free GST) of the same binder?
Its percent of GASP input retained (% of GASP input) is < 1.

B3: GASP-1 fragment corresponding to amino acids 924 to 1395 (domain or fragment)
chain: CCVSKPEDDEEMIVESWFWSRDKAIKETGTVATCESKPENEEGAIVGSWFEAEDEVDNRTDNGSNCGSRTLADEDEAIVGSWFWAGDEAHFESNPSPVFRAICRSTCSVEQEPDPSRRPQSWEEVTVQFKPGPWGRVGFPSISPFRFPKEAASLFCEMFGGKPRNMVLSPEGEDQESLLQPDQPSPEFPFQYDPSYRSVQEIREHLRAKESTEPESSSCNCIQCELKIGSEEFEELLLLMEKIRDPFIHEISKIAMGMRSASQFTRDFIRDSGVVSLIETLLNYPSSRVRTSFLENMIRMAPPYPNLNIIQTYICKVCEETLAYSVDSPEQLSGIRMIRHLTTTTDYHTLVANYMSGFLSLLATGNAKTRFHVLKMLLNLSENLFMTKELLSAEAVSEFIGLFNREETNDNIQIVLAIFENIGNNIKKETVFSDDDFNIEPLISAFHKVEKFAKELQGKTDNQNDPEGDQEN
modifications: [35S]-methionine labelled
Which percent of input retained (% of the input) [11] does the source give for B3 here?
Its percent of input retained (% of the input) is 5.

B4: GASP-1 truncated mutant 380–1073 (central domain), in vitro translated (domain or fragment)
chain: MTKEEAKTKARARAKQEARSEEEALIGTWFWATDESSMADEASIESSLQVEDESIIGSWFWTEEEASMGTGASSKSRPRTDGERIGDSLFGAREKTSMKTGAEATSESILAADDEQVIIGSWFWAGEEVNQEAEEETIFGSWFWVIDAASVESGVGVSCESRTRSEEEEVIGPWFWSGEQVDIEAGIGEEARPGAEEETIFGSWFWAENQTYMDCRAETSCDTMQGAEEEEPIIGSWFWTRVEACVEGDVNSKSSLEDKEEAMIPCFGAKEEVSMKHGTGVRCRFMAGAEETNNKSCFWAEKEPCMYPAGGGSWKSRPEEEEDIVNSWFWSRKYTKPEAIIGSWLWATEESNIDGTGEKAKLLTEEETIINSWFWKEDEAISEATDREESRPEAEEGDIIGSWFWAGEEDRLEPAAETREEDRLAAEKEGIVGSWFGAREETIRREAGSCSKSSPKAEEEEVIIGSWFWEEEASPEAVAGVGFESKPGTEEEEITVGSWFWPEEEASIQAGSQAVEEMESETEEETIFGSWFWDGKEVSEEAGPCCVSKPEDDEEMIVESWFWSRDKAIKETGTVATCESKPENEEGAIVGSWFEAEDEVDNRTDNGSNCGSRTLADEDEAIVGSWFWAGDEAHFESNPSPVFRAICRSTCSVEQEPDPSRRPQSWEEVTVQFKPGPWGRVGFPSISPFRFPKE
modifications: [35S]-methionine labelled
How did the percent of the full-length GASP-1 interaction (% of the full-length GASP-1 interaction) [6] turn out when B4 was run?
Its percent of the full-length GASP-1 interaction (% of the full-length GASP-1 interaction) is 70.

And the percent of the full-length GASP-1 interaction (% of the full-length GASP-1 interaction) [9]?
The percent of the full-length GASP-1 interaction (% of the full-length GASP-1 interaction) was 70.

And the percent of the full-length GASP-1 interaction (% of the full-length GASP-1 interaction) [10]?
Its percent of the full-length GASP-1 interaction (% of the full-length GASP-1 interaction) is 30.

B5: GASP-1 truncated mutant 1025–1395 (conserved C-terminal domain) (domain or fragment)
chain: ICRSTCSVEQEPDPSRRPQSWEEVTVQFKPGPWGRVGFPSISPFRFPKEAASLFCEMFGGKPRNMVLSPEGEDQESLLQPDQPSPEFPFQYDPSYRSVQEIREHLRAKESTEPESSSCNCIQCELKIGSEEFEELLLLMEKIRDPFIHEISKIAMGMRSASQFTRDFIRDSGVVSLIETLLNYPSSRVRTSFLENMIRMAPPYPNLNIIQTYICKVCEETLAYSVDSPEQLSGIRMIRHLTTTTDYHTLVANYMSGFLSLLATGNAKTRFHVLKMLLNLSENLFMTKELLSAEAVSEFIGLFNREETNDNIQIVLAIFENIGNNIKKETVFSDDDFNIEPLISAFHKVEKFAKELQGKTDNQNDPEGDQEN
modifications: [35S]-methionine labelled
For B5, which percent of the full-length GASP-1 interaction (% of the full-length GASP-1 interaction) [10] is on record?
The percent of the full-length GASP-1 interaction (% of the full-length GASP-1 interaction) was 25.

B6: GASP-2 truncated mutant 377–838 (domain or fragment)
chain: QEPRFEEEVIIGSWFWAEKEASLEGGASAICESEPGTEEGAIGGSAYWAEEKSSLGAVAREEAKPESEEEAIFGSWFWDRDEACFDLNPCPVYKVSDRFRDAAEELNASSRPQTWDEVTVEFKPGLFHGVGFRSTSPFGIPEEASEMLEAKPKNLELSPEGEEQESLLQPDQPSPEFTFQYDPSYRSVREIREHLRARESAESESWSCSCIQCELKIGSEEFEEFLLLMDKIRDPFIHEISKIAMGMRSASQFTRDFIRDSGVVSLIETLLNYPSSRVRTSFLENMIHMAPPYPNLNMIETFICQVCEETLAHSVDSLEQLTGIRMLRHLTMTIDYHTLIANYMSGFLSLLTTANARTKFHVLKMLLNLSENPAVAKKLFSAKALSIFVGLFNIEETNDNIQIVIKMFQNISNIIKSGKMSLIDDDFSLEPLISAFREFEELAKQLQAQIDNQNDPEVGQQS
modifications: [35S]-methionine labelled
B6 was tested. Which percent of the full-length GASP-2 interaction (% of the full-length GASP-2 interaction) [12] did it give?
The percent of the full-length GASP-2 interaction (% of the full-length GASP-2 interaction) was 30 to 60.
